Kd data for 13 molecules are collected here from paper PMC2944802, “CpG-Methylation Regulates a Class of Epstein-Barr Virus Promoters”.

This data set concerns the target Zta (BZLF1:Strep/FLAG) (Epstein-Barr virus, UniProt P03206 149-245). The experiment in a line: EMSA; apparent, Hill fit; […]; pH and temperature not stated. The note with it: protein: recombinant; tags: tandem StrepII/FLAG; chain copies: 2; label: 32P 5' end; blunt. For orientation: Mobility shift assays separate free from complexed probe on a gel.

Sequence of Zta (BZLF1:Strep/FLAG) (P03206 149-245): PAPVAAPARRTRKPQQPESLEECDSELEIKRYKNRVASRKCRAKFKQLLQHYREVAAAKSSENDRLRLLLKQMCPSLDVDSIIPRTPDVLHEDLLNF

B1: BRLF1 meZRE2 (dsDNA)
DNA 1: CTAAGCTTATGAGCGATTTTATCAC
DNA 2: GTGATAAAATCGCTCATAAGCTTAG
modifications: 5mC at position 14 of strand 1; bottom-strand methylation not shown in material
Regarding B1, the Kd came out at 12.7 ± 8.2 nM.

B2: BBLF4 ZRE A (dsDNA)
DNA 1: ATGACTCGTGTGCGAGCCGGTTTCG
DNA 2: CGAAACCGGCTCGCACACGAGTCAT
Take B2: the Kd came to 219 ± 41 nM.

B3: BBLF4 meZRE A (dsDNA)
DNA 1: ATGACTCGTGTGCGAGCCGGTTTCG
DNA 2: CGAAACCGGCTCGCACACGAGTCAT
modifications: 5mC at position 13 of strand 1; bottom-strand methylation not shown in material
As for B3, the Kd was 16.3 ± 2.6 nM.

B4: BHLF1 ZRE2 (dsDNA)
DNA 1: TTTAAGGTTTGCTCAGGAGTGGGG
DNA 2: CCCCACTCCTGAGCAAACCTTAAA
Consider B4, for which the Kd stood at 91.6 ± 38.5 nM.

B5: BRLF1 ZRE2 (dsDNA)
DNA 1: CTAAGCTTATGAGCGATTTTATCAC
DNA 2: GTGATAAAATCGCTCATAAGCTTAG
Take B5: the Kd amounted to 113 ± 11.9 nM.

B6: BBLF4 ZRE B (dsDNA)
DNA 1: CTCTCCTATGAGCGTTATGTGGACT
DNA 2: AGTCCACATAACGCTCATAGGAGAG
As for B6, the Kd worked out at 484 ± 244 nM.

B7: BMLF1 ZRE AP-1 (dsDNA)
DNA 1: GCGAAGCACTGACTCATGAAGGTGA
DNA 2: TCACCTTCATGAGTCAGTGCTTCGC
With B7, the Kd worked out at 40.8 ± 23 nM.

B8: BMRF1 ZRE A (dsDNA)
DNA 1: TTGGTGGATGTGCGAGCCATAAAGC
DNA 2: GCTTTATGGCTCGCACATCCACCAA
Consider B8, for which the Kd stood at 328 ± 166 nM.

B9: BRLF1 meZRE3 (dsDNA)
DNA 1: CAGTCAAAATTCGCGATGCTATAAA
DNA 2: TTTATAGCATCGCGAATTTTGACTG
modifications: 5mC at positions 12 and 14 of strand 1; bottom-strand methylation not shown in material
For the molecule B9, the Kd is 135 ± 45 nM.

B10: BBLF4 meZRE B (dsDNA)
DNA 1: CTCTCCTATGAGCGTTATGTGGACT
DNA 2: AGTCCACATAACGCTCATAGGAGAG
modifications: 5mC at position 13 of strand 1; bottom-strand methylation not shown in material
As for B10, the Kd was determined as 18 ± 4.2 nM.

B11: BMRF1 meZRE A (dsDNA)
DNA 1: TTGGTGGATGTGCGAGCCATAAAGC
DNA 2: GCTTTATGGCTCGCACATCCACCAA
modifications: 5mC at position 13 of strand 1; bottom-strand methylation not shown in material
Consider B11, for which the Kd stood at 20.2 ± 12.5 nM.

B12: oriLyt ZRE5 (dsDNA)
DNA 1: TTGTCACCTTTGCACATTTGGTCAG
DNA 2: CTGACCAAATGTGCAAAGGTGACAA
In the case of B12, the Kd came to 37.7 ± 4.3 nM.

B13: BRLF1 ZRE3 (dsDNA)
DNA 1: CAGTCAAAATTCGCGATGCTATAAA
DNA 2: TTTATAGCATCGCGAATTTTGACTG
Consider B13, for which the Kd is 1190 ± 227 nM.
